From patent publication US6046165

Experiments:
[1] = biological target: MAD^N (B-Pv) (Drosophila melanogaster) (UniProt P42003); assay: EMSA
[2] = biological target: MAD full length (B-H) (Drosophila melanogaster) (UniProt P42003); assay: EMSA; details: approximately 100-fold lower than MAD^N
Chain of MAD full length (B-H) (Drosophila melanogaster) (P42003 whole entry): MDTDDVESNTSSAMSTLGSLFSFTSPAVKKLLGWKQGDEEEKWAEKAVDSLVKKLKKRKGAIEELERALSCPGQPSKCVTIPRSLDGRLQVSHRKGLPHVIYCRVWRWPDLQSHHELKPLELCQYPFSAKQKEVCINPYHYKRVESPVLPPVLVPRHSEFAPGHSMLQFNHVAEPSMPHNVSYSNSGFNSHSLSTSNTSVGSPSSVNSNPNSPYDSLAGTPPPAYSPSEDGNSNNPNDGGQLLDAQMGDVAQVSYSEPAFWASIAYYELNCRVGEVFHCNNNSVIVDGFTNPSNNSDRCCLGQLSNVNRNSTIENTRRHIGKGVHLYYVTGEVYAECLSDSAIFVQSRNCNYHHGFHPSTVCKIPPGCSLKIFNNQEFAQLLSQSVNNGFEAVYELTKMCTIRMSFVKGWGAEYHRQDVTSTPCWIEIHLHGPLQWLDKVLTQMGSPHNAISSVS

Chain of MAD^N (B-Pv) (Drosophila melanogaster) (P42003 1-241): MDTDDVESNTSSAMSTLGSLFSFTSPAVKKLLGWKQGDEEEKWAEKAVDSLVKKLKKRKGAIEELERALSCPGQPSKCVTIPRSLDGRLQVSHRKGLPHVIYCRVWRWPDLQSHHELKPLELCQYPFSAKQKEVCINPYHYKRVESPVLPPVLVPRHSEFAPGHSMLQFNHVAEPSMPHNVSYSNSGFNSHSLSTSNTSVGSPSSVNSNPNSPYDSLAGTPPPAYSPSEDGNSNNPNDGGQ

Question: “ATTC (double strand) [MAD binding site GCT to CGC]” was tested. Which binding signal ([1]; increased affinity vs wild-type site, MBP fusion) did it give?
Answer: Its binding signal is 6 fold vs n15.

Question: For “ATTC (double strand) [MAD binding site (FIG. 7B)]”, which binding signal ([1]; wild-type reference) is on record?
Answer: The binding signal was 1 reference.

Question: For ATTC (double strand) [Vg 20 bp], which binding signal (fraction of MAD^N) [2] is on record?
Answer: Its binding signal (fraction of MAD^N) is 0.01.
